# According to patent publication US20210063414A1, “METHODS FOR PREVENTING AND/OR TREATING BONE LOSS CONDITIONS BY MODULATING IRISIN” (Dana-Farber Cancer Institute, Inc., priority 2018, published 2021):
# T1: MLO-Y4 cell surface proteins (Mus musculus, UniProt P08249)
# T1 construct: endogenous in cells; host or cells: MLO-Y4
# T1 sequence (P08249 25-338): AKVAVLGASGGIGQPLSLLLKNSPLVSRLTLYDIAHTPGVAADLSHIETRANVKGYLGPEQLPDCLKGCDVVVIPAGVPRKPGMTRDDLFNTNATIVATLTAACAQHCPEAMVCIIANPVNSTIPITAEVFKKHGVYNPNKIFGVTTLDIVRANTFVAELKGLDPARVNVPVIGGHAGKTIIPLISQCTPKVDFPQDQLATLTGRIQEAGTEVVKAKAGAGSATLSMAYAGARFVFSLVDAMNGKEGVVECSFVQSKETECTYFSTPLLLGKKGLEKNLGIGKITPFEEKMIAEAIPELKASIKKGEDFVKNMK
# Experiments:
# [1] = biological target: T1, MLO-Y4 cell surface proteins; test: Crosslinking/co-immunoprecipitation/mass spectrometry (TMT quantitative proteomics) to identify irisin receptors; type: binding; settings: co-precipitated protein Mdh2 (MDHM_MOUSE)
# Method in brief: (§1)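 Relative protein abundance came from 6-plex TMT MS3 quantitation on an Orbitrap Fusion Lumos, after in-gel trypsin digestion of Coomassie-stained SDS-PAGE lanes. Input was a Ni-NTA pulldown (250 mM imidazole elution) of lysates from murine MLO-Y4 cells. These cells were treated on ice with His-tagged irisin or adipsin (10 nM, 20 min) in serum-free medium, then crosslinked with 1.5 mM DTSSP for 30 min.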
# [2] = biological target: T2, MLO-Y4 cell surface proteins (Mus musculus, UniProt P62737); test: as above; type: binding; settings: co-precipitated protein Acta2 (ACTA_MOUSE)
# T2 construct: endogenous in cells; host or cells: MLO-Y4
# Method in brief: as §1
molecule,measurement,setting,value
"irisin: secreted cleaved form of FNDC5; recombinant human/mouse irisin with C-terminal his tag produced in HEK293 cells (protein, left off: small tags and cut ends, secreted cleaved form of FNDC5; recombinant human/mouse irisin with C-terminal his tag produced in HEK293 cells) DSPSAPVNVTVRHLKANSAVVSWDVLEDEVVIGFAISQQKKDVRMLRFIQEVNTTTRSCALWDLEEDTEYIVHVQAISIQGQSPASEPVLFKTPREAEKMASKNKDEVTMKE",TMT signal-to-noise ratio,[1],858.89
same,irisin/adipsin TMT signal-to-noise ratio,[1],0.336
same,TMT signal-to-noise ratio,[2],107.601
same,irisin/adipsin TMT signal-to-noise ratio,[2],0.298
